According to US20030194400:

Legend:
[1] = biological target: fibronectin-Tissue Factor (Fn-TF) fusion protein
[2] = biological target: T1, soluble Tissue Factor extracellular domain TF1-218
T1 chain: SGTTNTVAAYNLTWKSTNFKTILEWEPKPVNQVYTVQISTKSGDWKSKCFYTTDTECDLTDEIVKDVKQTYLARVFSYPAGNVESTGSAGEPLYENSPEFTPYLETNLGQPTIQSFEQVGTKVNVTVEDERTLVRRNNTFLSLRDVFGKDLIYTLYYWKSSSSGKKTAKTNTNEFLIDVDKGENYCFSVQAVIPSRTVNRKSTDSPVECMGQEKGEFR

B1: Factor VIIa (protein)
chain: ANAFLEELRPGSLERECKEEQCSFEEAREIFKDAERTKLFWISYSDGDQCASSPCQNGGSCKDQLQSYICFCLPAFEGRNCETHKDDQLICVNENGGCEQYCSDHTGTKRSCRCHEGYSLLADGVSCTPTVEYPCGKIPILEKRNASKPQGRIVGGKVCPKGECPWQVLLLVNGAQLCGGTLINTIWVVSAAHCFDKIKNWRNLIAVLGEHDLSEHDGDEQSRRVAQVIIPSTYVPGTTNHDIALLRLHQPVVLTDHVVPLCLPERTFSERTLAFVRFSLVSGWGQLLDRGATALELMVLNVPRLMTQDCLQQSRKVGDSPNITEYMFCAGYSDGSKDSCKGDSGGPHATHYRGTWYLTGIVSWGQGCATVGHFGVYTRVSQYIEWLQKLMRSEPRPGVLLRAPFP
Factor VIIa amidolytic activity (chromozym t-PA hydrolysis) [1]: Very little difference in amidolytic activity is discernable for Tissue Factor and Fn-TF except at high concentrations | Factor VIIa amidolytic activity (chromozym t-PA hydrolysis) [2]: Very little difference in amidolytic activity is discernable for Tissue Factor and Fn-TF except at high concentrations
